Test [1] deals with human fibrinogen (purified, commercial) (human) (UniProt P02671). In words: fibrinogen binding activity of purification step, biotinylated fibrinogen.
Test [2] has the same target. In words: fibrinogen binding activity after ammonium sulfate precipitation, biotinylated fibrinogen.
Test [3] shares this target. In words: fibrinogen binding activity of the gel filtration pool (pure Pfg), biotinylated fibrinogen. For orientation: Size exclusion chromatography separates by hydrodynamic size, large species first.
Test [4] shares this target. In words: fibrinogen binding activity of the anion exchange pool (partly purified Pfg), biotinylated fibrinogen.
Test [5] concerns the target P. acnes total surface protein extract. In words: plate assay, extract 0.8 to 50 µg/ml immobilized, biotinylated fibrinogen 0.1 µg/ml.

Values joined by “and” are separate entries in the source; they are usually repeats but may differ in a detail not shown here. Equal entries are not always repeated.

UniProt P02671, sequence (P02671 20-629 limits assumed, chain 1 of 3): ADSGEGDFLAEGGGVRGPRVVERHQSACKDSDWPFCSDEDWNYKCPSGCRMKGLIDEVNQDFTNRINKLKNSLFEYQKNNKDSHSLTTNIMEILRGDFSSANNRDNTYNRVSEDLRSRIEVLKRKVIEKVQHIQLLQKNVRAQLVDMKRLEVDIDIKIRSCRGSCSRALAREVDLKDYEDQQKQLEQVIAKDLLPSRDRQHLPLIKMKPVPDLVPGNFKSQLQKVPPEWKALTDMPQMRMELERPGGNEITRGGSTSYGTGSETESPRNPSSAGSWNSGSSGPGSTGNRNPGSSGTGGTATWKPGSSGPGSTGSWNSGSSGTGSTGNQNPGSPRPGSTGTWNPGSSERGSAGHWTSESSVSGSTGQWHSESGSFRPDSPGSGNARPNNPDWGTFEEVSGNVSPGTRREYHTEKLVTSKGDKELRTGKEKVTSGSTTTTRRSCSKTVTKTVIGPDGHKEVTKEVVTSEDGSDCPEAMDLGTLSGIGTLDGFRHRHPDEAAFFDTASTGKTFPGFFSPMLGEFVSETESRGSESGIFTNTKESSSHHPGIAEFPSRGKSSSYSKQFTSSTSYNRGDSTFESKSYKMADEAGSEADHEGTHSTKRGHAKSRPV
UniProt P02671, sequence (chain, as listed by the source limits assumed, chain 2 of 3): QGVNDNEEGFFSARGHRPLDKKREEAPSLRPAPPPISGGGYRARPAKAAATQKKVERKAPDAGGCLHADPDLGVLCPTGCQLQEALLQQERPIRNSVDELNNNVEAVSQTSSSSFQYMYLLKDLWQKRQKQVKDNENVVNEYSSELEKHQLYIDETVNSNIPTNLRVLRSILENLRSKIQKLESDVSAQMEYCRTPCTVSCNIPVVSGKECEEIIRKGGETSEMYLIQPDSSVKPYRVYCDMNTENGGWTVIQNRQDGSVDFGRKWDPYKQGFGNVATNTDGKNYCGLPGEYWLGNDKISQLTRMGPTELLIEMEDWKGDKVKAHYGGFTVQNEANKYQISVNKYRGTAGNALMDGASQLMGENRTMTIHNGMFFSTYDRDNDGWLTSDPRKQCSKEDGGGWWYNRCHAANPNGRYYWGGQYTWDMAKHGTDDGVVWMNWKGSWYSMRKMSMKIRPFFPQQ
UniProt P02671, sequence (P02679 other isoform, or with tags, fused parts or gaps limits assumed, chain 3 of 3, further chain): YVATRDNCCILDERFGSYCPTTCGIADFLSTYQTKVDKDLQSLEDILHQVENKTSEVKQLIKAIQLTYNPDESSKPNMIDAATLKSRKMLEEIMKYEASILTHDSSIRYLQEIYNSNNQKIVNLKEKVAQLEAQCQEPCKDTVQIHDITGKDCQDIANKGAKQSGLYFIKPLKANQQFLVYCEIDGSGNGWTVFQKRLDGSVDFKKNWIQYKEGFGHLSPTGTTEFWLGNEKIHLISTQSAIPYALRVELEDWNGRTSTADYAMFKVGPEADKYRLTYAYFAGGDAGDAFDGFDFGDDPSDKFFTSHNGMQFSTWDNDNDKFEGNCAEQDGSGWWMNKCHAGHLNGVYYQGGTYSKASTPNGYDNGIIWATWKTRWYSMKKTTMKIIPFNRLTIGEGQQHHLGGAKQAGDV

Regarding P. acnes total surface protein extract, in test [1], the Specific Activity (fibrinogen binding activity per unit of protein) is 423 U/mg and 290 U/mg; the Total units (fibrinogen binding activity) was 390000 U and 160000 U. The same substance had a fold increase in specific activity against the unconcentrated lithium extract in test [2] of 1.45 fold.
In test [3], “Pfg, 58-kDa P. acnes surface protein (fibrinogen binding protein; putative adhesion or S-layer protein YP_056792, locus tag PPA2127)” yielded a Specific Activity (fibrinogen binding activity per unit of protein) of 1840 U/mg and a Total units (fibrinogen binding activity) of 368 U. In test [4], this substance showed a Specific Activity (fibrinogen binding activity per unit of protein) of 1030 U/mg and a Total units (fibrinogen binding activity) of 3000 U.
Regarding “human fibrinogen (purified, commercial) (from UniProt P02671 20-629; P02679 27-437) (ligand)”, the concentration of immobilized extract at which binding reaches a plateau in test [5] is 6.25 µg/mL.

(Values after patent US20180105574A1.)
